To fix the notation:
B1: unnamed (parent)
chain 1: MAVSESQLKKMVSKYKYRDLTVRETVNVITLYKDLKPVLDSYVFNDGSSRELMNLTGTIPVPYRGNTYNIPICLWLLDTYPYNPPICFVKPTSSMTIKTGKHVDANGKIYLPYLHEWKHPQSDLLGLIQVMIVVFGDEPPVFSRPISASYPPYQATGPPNTSYMPGMPGGISPYPSGYPPNPSGYPGCPYPPGGPYPATTSSQYPSQPPVTTVGPSRDGTISEDTIRASLISAVSDKLRWRMKEEMDRAQAELNALKRTEEDLKKGHQKLEEMVTRLDQEVAEVDKNIELLKKKDEELSSALEKMENQSENNDIDEVIIPTAPLYKQILNLYAEENAIEDTIFYLGEALRRGVIDLDVFLKHVRLLSRKQFQLRALMQKARKTAGLSDLY
chain 2: LQSRPEPTAPPEESFRSGVETTTPPQKQEPIDKELYPLTSLRSLFGNDPSSQ

This experiment covers variants of B1. The experiment is described as follows: yeast 2-hybrid assay. To be noted: with partner chain of the complex shown; parent: 1; read off a plot.
As for chain 1 Q7A L8A, the ratio to parent was found to be 1.1.

On to chain 1 Y110A, for which the ratio to parent was 0.35.

chain 1 K16A: the ratio to parent turned out to be 2.4. To chain 1 Y42A belongs 0.95; to chain 1 Y82A, 0.8; to chain 1 M11A V12A S13A K14A, 1.9. On to chain 1 K10A, for which the ratio to parent amounted to 2.9. As for chain 1 K9A K10A, the ratio to parent was found to be 9.3. To chain 1 S41A belongs 1.3.

The record behind these values is paper PMC7232412.
